Data published in patent US20230067757A1 (NOVAROCK BIOTHERAPEUTICS, published 2023).
Substitutions are numbered along the chain they refer to.

B1: Hu-2 (antibody, V domains shown)
VH: QLRLQESGPGLVKPSETLSLTCAVSGGSISSSRSYWGWIRQPPGKGLELIGSIYYSGSTYYNPSLKSRVTISVDTSKNQFSLKLTSVTATDTAVYYCARQTLRYFDWLSPFDYWGQGTLVTVSS
VL: EIVMTQSPATLSLSPGERATLSCRASQSVRSNYLSWYQQKPGQAPRLLIYGTSTRATGIPARFSGSGSGTDFTLTISSLQPEDFAVYFCQQDYNLPITFGQGTRLEIK
B2: Hu-6 (antibody, V domains shown)
VH: QMQLRESGPGLVKPSETLSLTCTVSNGPISSSRYYWGWIRQPPGKGLEWIGSFHYSGSTYYKPSLKSRVTISADTSKNQLSLELSSVTAADTAVYYCARLVLRYFDWLGYFDLWGRGTLVTVSS
VL: B1 VL with I2F, V29I, T52A, G58A, F88Y
B3: Hu-3 (antibody, V domains shown)
VH: B2 VH with M2L, R5Q, N26D, K62N, L80F, E83K, Y110F
VL: B1 VL with T10I, T20A, N32S, F88Y, I107F
B4: Ms2 (antibody, V domains shown)
VH: QVQLKESGPGLVAPSQSLSITCTVSGFSLTSYGVHWVRQPPGKGLEWLGVIWAGGSTNYNSALMSRLSISKDNSKSQVFLKMNSLQTDDTAMYYCARDFTTATGFDYWGQGTTLTVSS
VL: DIVMTQSPSSLSVSAGEKVTMSCKSSQSLLNSGNQKNYLAWYQQKPGQPPKLLIYGASTRESGVPDRFTGSGSGTDFTLTISSVQAEDLAVYYCQNDHSYPFTFGSGTKLEIK
B5: Ms16 (antibody, V domains shown)
VH: QVQLQQSGAELVRPGTSVKVSCKASGYAFTNYLIEWIKQRPGQGLEWIGVINPGSGGTNYNEKLKGKATLTADKSSSTAYMQLSSLTSGDSAVYFCARYVKGNALDYWGQGTSVTVSS
VL: DIVMTQSPSSLTVTAGEKVTLSCKSSQSLFNSGNQKNYLTWYQQKPGQPPKLLIYWASTRESGVPDRFTGSGSGTDFTLTISSVQAEDLAIYYCQNSYSFPLTFGAGTKLELT
B6: Ms4 (antibody, V domains shown)
VH: EVQLQQSGPELEKPGASVKISCKASGYSFTGYNMNWVKQSNGKSLEWIGNIDPYYGGTRYNQKFKGKATLTVDRSSSTAYMQLKSLTSEDSAVYYCARLGLGNAMDYWGQGTSVTVSS
VL: B4 VL with S10F, S12T, S14T, N37S, A40T, G56W, H98Y, S99Y, K109E
B7: Ms11 (antibody, V domains shown)
VH: QVQLQQSGAELVKPGASVKMSCKAFGYTFTTYSIEWMKQNHGKSLEWIGNFRPYNDDTKCNEKFKGKAKLTVEKSSSTVYLELSRLTSDDSAVYYCARGSYGNSFAYWGQGTLVTVSA
VL: B4 VL
B8: Hu-9 (antibody, V domains shown)
VH: EVQLLESGGGLVQPGGSLRLSCAASGFTFSSFAMTWVRQAPGKGLEWVSSLSGSGRSTYYAASMKGRFTISRDNSKNTLYLQMNSLRAEDTAIYYCAKSLSYYHYYFDYWGQGTLVTVTS
VL: DIQLTQSPSFLSASVGDRVPITCRASQGISNFLAWYQQKPGKAPELLIHSASTLQSGVPSRFSGSGSGTEFTLTISNLQPQDFATYYCQQVNSYPLTFGGGTKVEIK
B9: Hu-17 (antibody, V domains shown)
VH: QVQLVQSGAEVKRPGASVKVSCRVSGYTLTALSMYWVRQAPGKGLEWMGGFDPEDGETIYAQKFQGRVTMTEDTSTGTAYMELSSLKSEDTAVYYCATRLRYFDWNYWGQGTPVTVSS
VL: DIVMTQTPLSSPVTLGQPASISCRSSQSLVHSDGNTYLSWLQQRPGQPPRLLIYKVSKRFSGVPDRFSGSGAGTDFTLKISRVEAEDVGVYYCTQGTQFPRTFGQGTKVEIK
notes: Human V regions (Trianni mice)
B10: Hu-18 (antibody, V domains shown)
VH: B9 VH with R13K, T30S, E57K, K87R, V93I, R99T
VL: B9 VL
notes: as for B9
B11: Ms14 (antibody, V domains shown)
VH: EVQLQQSGPELVKPGASVKMSCKASGYTFTRYIIHWVKQKPGQGLEWIGYFNPYNDDSKNNEKFKGKATLTSDKSSSTAYMEISSLTSEDSAVYYCAKLRQERIAYWGQGTLVTVSA
VL: DIQMNQSPSSLSASLGDTITITCHVSQNIDVWLSWYQQKPGNIPKLLIYKASNLHTGVPSRFSGSGSGTGFTLTISSLQPEDIATYYCQQGQSYPLTFGAGTKLELK

These binders were tested against T1, human claudin 18 isoform 2 (claudin 18.2) (human) (assay: imaging, PATU8988S cells (endogenous CLDN18.2); +++ = EC50 between 2 nM and 20 nM).
T1 construct: Recombinant on transfected CHO cells (CHO-CLDN18.2) or endogenous on tumor cell lines PATU8988S, NUGC-4, KATOIII; the cell line is named under assay; also called CLDN18.2
Protocol: (§1) Tumor cells were plated in complete media containing RPMI1640 with +10% FBS, then incubated overnight at 37° C., Claudin18.2 antibodies were serial diluted and added to the assay plates, incubated at 4° C. for 2 hours, followed by fixing cells and further staining the cells for 30 minutes with Alexa Fluor® 488 Goat Anti-Human IgG (H+L) secondary antibody (invitrogen Cat #A-11013) for detection. The binding was assessed by imaging the cells and quantifying the fluorescence intensity using a Biotek Cytation.

| EC50 [nM] | Binder |
| --- | --- |
| 2 to 20 | B1 |
| 2 to 20 | B2 |
| 2 to 20 | B3 |

What follows are binders tested against T1, human claudin 18 isoform 2 (claudin …) (assay: immunofluorescence imaging, CHO-CLDN18.2 cells (FIG. 3B); Table 5 prints 3.0).
Protocol: as §1, with “The specific cellular binding affinity of anti-Claudin18.2 antibodies was tested on CHO-CLDN18.2 (transfected CHO cell expressing recombinant human CLDN18.2) and CHO-CLDN18.1 (transfected CHO cell expressing recombinant human CLDN18.1) cells. The” for “Tumor”, “F12” for “RPMI1640”, “10%” for “+10%”, “anti-Claudin18.2” for “Claudin18.2”, “antibody, invitrogen” for “antibody (invitrogen”, “#A-11013” for “#A-11013)”

| EC50 [nM] | Binder |
| --- | --- |
| 2.8 | B4 |

Each binder was assayed against T1, human claudin 18 isoform 2 (claudin …) (assay: immunofluorescence imaging, CHO-CLDN18.2 cells, serial dilution).
Protocol: as §1, with “The specific cellular binding affinity of anti-Claudin18.2 antibodies was tested on CHO-CLDN18.2 (transfected CHO cell expressing recombinant human CLDN18.2) and CHO-CLDN18.1 (transfected CHO cell expressing recombinant human CLDN18.1) cells. The” for “Tumor”, “F12” for “RPMI1640”, “10%” for “+10%”, “anti-Claudin18.2” for “Claudin18.2”, “antibody, invitrogen” for “antibody (invitrogen”, “#A-11013” for “#A-11013)”

| EC50 [nM] | Binder |
| --- | --- |
| 0.8 | B5 |
| 3 | B4 |
| 0.8 | B6 |
| 3.3 | B7 |
| 1.1 | B8 |
| 6.2 | B9 |
| 0.8 | B10 |
| 1.5 | B1 |
| 1.5 | B2 |
| 1.3 | B3 |
| 1.1 | B11 |

These binders were tested against T2, human claudin 18 isoform 1 (claudin 18.1) (human, UniProt P56856 1-261) (assay: imaging, CHO-CLDN18.1 cells, dose titration).
T2 construct: Recombinant on transfected CHO cells (CHO-CLDN18.1); also called CLDN18.1
T2 sequence (P56856 whole entry, canonical isoform): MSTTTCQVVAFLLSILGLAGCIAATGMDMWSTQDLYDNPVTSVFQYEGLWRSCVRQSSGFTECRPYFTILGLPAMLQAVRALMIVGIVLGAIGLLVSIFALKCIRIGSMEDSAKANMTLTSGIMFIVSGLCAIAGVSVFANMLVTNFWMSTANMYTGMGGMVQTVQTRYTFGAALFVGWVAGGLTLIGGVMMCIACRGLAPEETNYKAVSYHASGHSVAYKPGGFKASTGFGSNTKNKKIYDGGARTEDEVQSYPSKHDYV
Protocol: as §1, with “The specific cellular binding affinity of anti-Claudin18.2 antibodies was tested on CHO-CLDN18.2 (transfected CHO cell expressing recombinant human CLDN18.2) and CHO-CLDN18.1 (transfected CHO cell expressing recombinant human CLDN18.1) cells. The” for “Tumor”, “F12” for “RPMI1640”, “10%” for “+10%”, “anti-Claudin18.2” for “Claudin18.2”, “antibody, invitrogen” for “antibody (invitrogen”, “#A-11013” for “#A-11013)”

| binding result | Binder |
| --- | --- |
| no binding (tested: 133.4 nM) | B9 |
| no binding (tested: 133.4 nM) | B10 |

Each binder was assayed against T1, human claudin 18 isoform 2 (claudin …) (assay: immunofluorescence imaging, CHO-CLDN18.2 cells; low end tied to Hu-18 by Table 6 (0.8)).
Protocol: as §1, with “The specific cellular binding affinity of anti-Claudin18.2 antibodies was tested on CHO-CLDN18.2 (transfected CHO cell expressing recombinant human CLDN18.2) and CHO-CLDN18.1 (transfected CHO cell expressing recombinant human CLDN18.1) cells. The” for “Tumor”, “F12” for “RPMI1640”, “10%” for “+10%”, “anti-Claudin18.2” for “Claudin18.2”, “antibody, invitrogen” for “antibody (invitrogen”, “#A-11013” for “#A-11013)”

| EC50 [nM] | Binder |
| --- | --- |
| 0.77 | B10 |

Each binder was assayed against T1, human claudin 18 isoform 2 (claudin …) (assay: imaging, PATU8988S cells (endogenous CLDN18.2); ++ = EC50 between 20 nM and 100 nM).

| EC50 [nM] | Binder |
| --- | --- |
| 20 to 100 | B4 |
| 20 to 100 | B7 |
| 20 to 100 | B11 |

Each binder was assayed against T1, human claudin 18 isoform 2 (claudin …) (assay: immunofluorescence imaging, CHO-CLDN18.2 cells (FIG. 3C); Table 6 prints 1.3).
Protocol: as §1, with “The specific cellular binding affinity of anti-Claudin18.2 antibodies was tested on CHO-CLDN18.2 (transfected CHO cell expressing recombinant human CLDN18.2) and CHO-CLDN18.1 (transfected CHO cell expressing recombinant human CLDN18.1) cells. The” for “Tumor”, “F12” for “RPMI1640”, “10%” for “+10%”, “anti-Claudin18.2” for “Claudin18.2”, “antibody, invitrogen” for “antibody (invitrogen”, “#A-11013” for “#A-11013)”

| EC50 [nM] | Binder |
| --- | --- |
| 1.34 | B3 |

These binders were tested against T1, human claudin 18 isoform 2 (claudin …) (assay: cell-based or functional assay).

| ADCC EC50, CHO-18.2 target cells (mouse FcγRIV reporter bioluminescence) [nM] | Binder |
| --- | --- |
| 1.1 | B8 |
| 3.51 | B1 |
| 4.8 | B2 |
| 3.11 | B3 |

What follows are binders tested against T1, human claudin 18 isoform 2 (claudin …) (assay: imaging, PATU8988S cells (endogenous CLDN18.2); ++++ = EC50 less than 2 nM).

| EC50 [nM] | Binder |
| --- | --- |
| < 2 | B5 |
| < 2 | B6 |

What follows are binders tested against T2, human claudin 18 isoform 1 (claudin …) (assay: immunofluorescence imaging on CHO cells expressing human CLDN18.1, antibody at 10 µg/ml).
Protocol: as §1, with “The specific cellular binding affinity of anti-Claudin18.2 antibodies was tested on CHO-CLDN18.2 (transfected CHO cell expressing recombinant human CLDN18.2) and CHO-CLDN18.1 (transfected CHO cell expressing recombinant human CLDN18.1) cells. The” for “Tumor”, “F12” for “RPMI1640”, “10%” for “+10%”, “anti-Claudin18.2” for “Claudin18.2”, “antibody, invitrogen” for “antibody (invitrogen”, “#A-11013” for “#A-11013)”

| binding result | Binder |
| --- | --- |
| no binding (tested: 10 µg/ml) | B4 |
| no binding (tested: 10 µg/ml) | B6 |
| no binding (tested: 10 µg/ml) | B7 |
| no binding (tested: 10 µg/ml) | B8 |
| no binding (tested: 10 µg/ml) | B1 |
| no binding (tested: 10 µg/ml) | B3 |

Target: T1, human claudin 18 isoform 2 (claudin …)
Assay: cell-based or functional assay
Remark: another data set of the same source

| Binder | endocytosis derived cell toxicity EC50, CHO-18.2 cells (anti-IgG Fc-MMAF co-internalization) [nM] |
| --- | --- |
| B8 | 0.85 |
| B1 | 1.43 |
| B2 | 1.69 |
| B3 | 1.23 |

Target: T1, human claudin 18 isoform 2 (claudin …)
Assay: cell-based or functional assay
Remark: another data set of the same source

| Binder | endocytosis derived cell toxicity EC50, CHO-18.2 cells (anti-IgG Fc-MMAF co-internalization) [nM] |
| --- | --- |
| B5 | 1 |
| B4 | 2.55 |
| B6 | 0.98 |
| B7 | 1.3 |
| B11 | 1.02 |

What follows are binders tested against T1, human claudin 18 isoform 2 (claudin …) (assay: immunofluorescence imaging, CHO-CLDN18.2 cells (FIG. 3C); Table 5 prints 0.8).
Protocol: as §1, with “The specific cellular binding affinity of anti-Claudin18.2 antibodies was tested on CHO-CLDN18.2 (transfected CHO cell expressing recombinant human CLDN18.2) and CHO-CLDN18.1 (transfected CHO cell expressing recombinant human CLDN18.1) cells. The” for “Tumor”, “F12” for “RPMI1640”, “10%” for “+10%”, “anti-Claudin18.2” for “Claudin18.2”, “antibody, invitrogen” for “antibody (invitrogen”, “#A-11013” for “#A-11013)”

| EC50 [nM] | Binder |
| --- | --- |
| 0.75 | B6 |

Target: T1, human claudin 18 isoform 2 (claudin …)
Assay: imaging, PATU8988S cells (endogenous CLDN18.2); ++++ = EC50 less than 2 nM
Remark: another data set of the same source
Protocol: as §1

| EC50 [nM] | Binder |
| --- | --- |
| < 2 | B8 |

Each binder was assayed against T2, human claudin 18 isoform 1 (claudin …) (assay: imaging, CHO-CLDN18.1 cells, single concentration (FIG. 3A)).
Protocol: as §1, with “The specific cellular binding affinity of anti-Claudin18.2 antibodies was tested on CHO-CLDN18.2 (transfected CHO cell expressing recombinant human CLDN18.2) and CHO-CLDN18.1 (transfected CHO cell expressing recombinant human CLDN18.1) cells. The” for “Tumor”, “F12” for “RPMI1640”, “10%” for “+10%”, “anti-Claudin18.2” for “Claudin18.2”, “antibody, invitrogen” for “antibody (invitrogen”, “#A-11013” for “#A-11013)”

| binding result | Binder |
| --- | --- |
| no binding (tested: 10 µg/ml) | B5 |
| no binding (tested: 10 µg/ml) | B11 |
